Test results published in the supplement of paper PMC10266784.

B1: library; numbered along this chain (parent)
chain: MAAAAAAAAEQQSSNGPVKKSMREKAVERRSVNKEHNSNFKAGYIPIDEDRLHKTGLRGRKGNLAICVIILLFILAVINLIITLVIWAVIRIGPNGCDSMEFHESGLLRFKQVSDMGVIHPLYKSTVGGRRNENLVITGNNQPIVFQQGTTKLSVENNKTSITSDIGMQFFDPRTQNILFSTDYETHEFHLPSGVKSLNVQKASTERITSNATSDLNIKVDGRAIVRGNEGVFIMGKTIEFHMGGNMELKAENSIILNGSVMVSTTRLPSSSSGDQLGSGDWVRYKLCMCADGTLFKVQVTSQNMGCQISDNPCGNTH

Variants of: B1
Experiment: SGCB cell-surface expression functional score (HA stain, bin4 vs bin1, normalised to synonymous) (log10 ratio); higher = more cell-surface SGCB (functional)
Description: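 Deep mutational scan of full-length human SGCB (YFP-SGCB-HA, NNN codon sublibraries A-F) delivered by lentivirus at low MOI into ADG-HEK293 cells stably expressing SGCA, SGCD and SGCG. YFP-positive cells were stained for surface HA on unpermeabilized cells and FACS-sorted into bins. The functional score is log10(frequency in high bin 4 / frequency in low bin 1), normalised per chunk so that synonymous variants have mean 0 and SD 0.5. Scores are the median over codons and over duplicate biological replicates; scores below -0.5 are called non-functional. Scale: negative means deleterious.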

Row | Variant | SGCB cell-surface expression functional score (log10)
1 | MAAAAAAAAEQQRSNGPVKKSMREKAVERRSVNKEHNSNFKAGYIPIDEDRLHKTGLRGRKGNLAICVIILLFILAVINLIITLVIWAVIRIGPNGCDSMEFHESGLLRFKQVSDMGVIHPLYKSTVGGRRNENLVITGNNQPIVFQQGTTKLSVENNKTSITSDIGMQFFDPRTQNILFSTDYETHEFHLPSGVKSLNVQKASTERITSNATSDLNIKVDGRAIVRGNEGVFIMGKTIEFHMGGNMELKAENSIILNGSVMVSTTRLPSSSSGDQLGSGDWVRYKLCMCADGTLFKVQVTSQNMGCQISDNPCGNTH [S13R] | -0.07
2 | MAAAAAAAAEQQDSNGPVKKSMREKAVERRSVNKEHNSNFKAGYIPIDEDRLHKTGLRGRKGNLAICVIILLFILAVINLIITLVIWAVIRIGPNGCDSMEFHESGLLRFKQVSDMGVIHPLYKSTVGGRRNENLVITGNNQPIVFQQGTTKLSVENNKTSITSDIGMQFFDPRTQNILFSTDYETHEFHLPSGVKSLNVQKASTERITSNATSDLNIKVDGRAIVRGNEGVFIMGKTIEFHMGGNMELKAENSIILNGSVMVSTTRLPSSSSGDQLGSGDWVRYKLCMCADGTLFKVQVTSQNMGCQISDNPCGNTH [S13D] | 0.05
3 | MAAAAAAAAEQQISNGPVKKSMREKAVERRSVNKEHNSNFKAGYIPIDEDRLHKTGLRGRKGNLAICVIILLFILAVINLIITLVIWAVIRIGPNGCDSMEFHESGLLRFKQVSDMGVIHPLYKSTVGGRRNENLVITGNNQPIVFQQGTTKLSVENNKTSITSDIGMQFFDPRTQNILFSTDYETHEFHLPSGVKSLNVQKASTERITSNATSDLNIKVDGRAIVRGNEGVFIMGKTIEFHMGGNMELKAENSIILNGSVMVSTTRLPSSSSGDQLGSGDWVRYKLCMCADGTLFKVQVTSQNMGCQISDNPCGNTH [S13I] | -0.1
4 | MAAAAAAAAEQQGSNGPVKKSMREKAVERRSVNKEHNSNFKAGYIPIDEDRLHKTGLRGRKGNLAICVIILLFILAVINLIITLVIWAVIRIGPNGCDSMEFHESGLLRFKQVSDMGVIHPLYKSTVGGRRNENLVITGNNQPIVFQQGTTKLSVENNKTSITSDIGMQFFDPRTQNILFSTDYETHEFHLPSGVKSLNVQKASTERITSNATSDLNIKVDGRAIVRGNEGVFIMGKTIEFHMGGNMELKAENSIILNGSVMVSTTRLPSSSSGDQLGSGDWVRYKLCMCADGTLFKVQVTSQNMGCQISDNPCGNTH [S13G] | -0.08
5 | MAAAAAAAAEQQNSNGPVKKSMREKAVERRSVNKEHNSNFKAGYIPIDEDRLHKTGLRGRKGNLAICVIILLFILAVINLIITLVIWAVIRIGPNGCDSMEFHESGLLRFKQVSDMGVIHPLYKSTVGGRRNENLVITGNNQPIVFQQGTTKLSVENNKTSITSDIGMQFFDPRTQNILFSTDYETHEFHLPSGVKSLNVQKASTERITSNATSDLNIKVDGRAIVRGNEGVFIMGKTIEFHMGGNMELKAENSIILNGSVMVSTTRLPSSSSGDQLGSGDWVRYKLCMCADGTLFKVQVTSQNMGCQISDNPCGNTH [S13N] | 0.08
6 | MAAAAAAAAEQQESNGPVKKSMREKAVERRSVNKEHNSNFKAGYIPIDEDRLHKTGLRGRKGNLAICVIILLFILAVINLIITLVIWAVIRIGPNGCDSMEFHESGLLRFKQVSDMGVIHPLYKSTVGGRRNENLVITGNNQPIVFQQGTTKLSVENNKTSITSDIGMQFFDPRTQNILFSTDYETHEFHLPSGVKSLNVQKASTERITSNATSDLNIKVDGRAIVRGNEGVFIMGKTIEFHMGGNMELKAENSIILNGSVMVSTTRLPSSSSGDQLGSGDWVRYKLCMCADGTLFKVQVTSQNMGCQISDNPCGNTH [S13E] | 0.25
7 | MAAAAAAAAEQQFSNGPVKKSMREKAVERRSVNKEHNSNFKAGYIPIDEDRLHKTGLRGRKGNLAICVIILLFILAVINLIITLVIWAVIRIGPNGCDSMEFHESGLLRFKQVSDMGVIHPLYKSTVGGRRNENLVITGNNQPIVFQQGTTKLSVENNKTSITSDIGMQFFDPRTQNILFSTDYETHEFHLPSGVKSLNVQKASTERITSNATSDLNIKVDGRAIVRGNEGVFIMGKTIEFHMGGNMELKAENSIILNGSVMVSTTRLPSSSSGDQLGSGDWVRYKLCMCADGTLFKVQVTSQNMGCQISDNPCGNTH [S13F] | -0.45
8 | MAAAAAAAAEQQMSNGPVKKSMREKAVERRSVNKEHNSNFKAGYIPIDEDRLHKTGLRGRKGNLAICVIILLFILAVINLIITLVIWAVIRIGPNGCDSMEFHESGLLRFKQVSDMGVIHPLYKSTVGGRRNENLVITGNNQPIVFQQGTTKLSVENNKTSITSDIGMQFFDPRTQNILFSTDYETHEFHLPSGVKSLNVQKASTERITSNATSDLNIKVDGRAIVRGNEGVFIMGKTIEFHMGGNMELKAENSIILNGSVMVSTTRLPSSSSGDQLGSGDWVRYKLCMCADGTLFKVQVTSQNMGCQISDNPCGNTH [S13M] | 0.29
9 | MAAAAAAAAEQQKSNGPVKKSMREKAVERRSVNKEHNSNFKAGYIPIDEDRLHKTGLRGRKGNLAICVIILLFILAVINLIITLVIWAVIRIGPNGCDSMEFHESGLLRFKQVSDMGVIHPLYKSTVGGRRNENLVITGNNQPIVFQQGTTKLSVENNKTSITSDIGMQFFDPRTQNILFSTDYETHEFHLPSGVKSLNVQKASTERITSNATSDLNIKVDGRAIVRGNEGVFIMGKTIEFHMGGNMELKAENSIILNGSVMVSTTRLPSSSSGDQLGSGDWVRYKLCMCADGTLFKVQVTSQNMGCQISDNPCGNTH [S13K] | 0.46
10 | MAAAAAAAAEQQLSNGPVKKSMREKAVERRSVNKEHNSNFKAGYIPIDEDRLHKTGLRGRKGNLAICVIILLFILAVINLIITLVIWAVIRIGPNGCDSMEFHESGLLRFKQVSDMGVIHPLYKSTVGGRRNENLVITGNNQPIVFQQGTTKLSVENNKTSITSDIGMQFFDPRTQNILFSTDYETHEFHLPSGVKSLNVQKASTERITSNATSDLNIKVDGRAIVRGNEGVFIMGKTIEFHMGGNMELKAENSIILNGSVMVSTTRLPSSSSGDQLGSGDWVRYKLCMCADGTLFKVQVTSQNMGCQISDNPCGNTH [S13L] | 0.02
11 | MAAAAAAAAEQQASNGPVKKSMREKAVERRSVNKEHNSNFKAGYIPIDEDRLHKTGLRGRKGNLAICVIILLFILAVINLIITLVIWAVIRIGPNGCDSMEFHESGLLRFKQVSDMGVIHPLYKSTVGGRRNENLVITGNNQPIVFQQGTTKLSVENNKTSITSDIGMQFFDPRTQNILFSTDYETHEFHLPSGVKSLNVQKASTERITSNATSDLNIKVDGRAIVRGNEGVFIMGKTIEFHMGGNMELKAENSIILNGSVMVSTTRLPSSSSGDQLGSGDWVRYKLCMCADGTLFKVQVTSQNMGCQISDNPCGNTH [S13A] | 0.2
12 | MAAAAAAAAEQQQSNGPVKKSMREKAVERRSVNKEHNSNFKAGYIPIDEDRLHKTGLRGRKGNLAICVIILLFILAVINLIITLVIWAVIRIGPNGCDSMEFHESGLLRFKQVSDMGVIHPLYKSTVGGRRNENLVITGNNQPIVFQQGTTKLSVENNKTSITSDIGMQFFDPRTQNILFSTDYETHEFHLPSGVKSLNVQKASTERITSNATSDLNIKVDGRAIVRGNEGVFIMGKTIEFHMGGNMELKAENSIILNGSVMVSTTRLPSSSSGDQLGSGDWVRYKLCMCADGTLFKVQVTSQNMGCQISDNPCGNTH [S13Q] | 0.29
13 | MAAAAAAAAEQQPSNGPVKKSMREKAVERRSVNKEHNSNFKAGYIPIDEDRLHKTGLRGRKGNLAICVIILLFILAVINLIITLVIWAVIRIGPNGCDSMEFHESGLLRFKQVSDMGVIHPLYKSTVGGRRNENLVITGNNQPIVFQQGTTKLSVENNKTSITSDIGMQFFDPRTQNILFSTDYETHEFHLPSGVKSLNVQKASTERITSNATSDLNIKVDGRAIVRGNEGVFIMGKTIEFHMGGNMELKAENSIILNGSVMVSTTRLPSSSSGDQLGSGDWVRYKLCMCADGTLFKVQVTSQNMGCQISDNPCGNTH [S13P] | 0.2
14 | MAAAAAAAAEQQHSNGPVKKSMREKAVERRSVNKEHNSNFKAGYIPIDEDRLHKTGLRGRKGNLAICVIILLFILAVINLIITLVIWAVIRIGPNGCDSMEFHESGLLRFKQVSDMGVIHPLYKSTVGGRRNENLVITGNNQPIVFQQGTTKLSVENNKTSITSDIGMQFFDPRTQNILFSTDYETHEFHLPSGVKSLNVQKASTERITSNATSDLNIKVDGRAIVRGNEGVFIMGKTIEFHMGGNMELKAENSIILNGSVMVSTTRLPSSSSGDQLGSGDWVRYKLCMCADGTLFKVQVTSQNMGCQISDNPCGNTH [S13H] | 0.13
15 | MAAAAAAAAEQQCSNGPVKKSMREKAVERRSVNKEHNSNFKAGYIPIDEDRLHKTGLRGRKGNLAICVIILLFILAVINLIITLVIWAVIRIGPNGCDSMEFHESGLLRFKQVSDMGVIHPLYKSTVGGRRNENLVITGNNQPIVFQQGTTKLSVENNKTSITSDIGMQFFDPRTQNILFSTDYETHEFHLPSGVKSLNVQKASTERITSNATSDLNIKVDGRAIVRGNEGVFIMGKTIEFHMGGNMELKAENSIILNGSVMVSTTRLPSSSSGDQLGSGDWVRYKLCMCADGTLFKVQVTSQNMGCQISDNPCGNTH [S13C] | -0.36
16 | MAAAAAAAAEQYSSNGPVKKSMREKAVERRSVNKEHNSNFKAGYIPIDEDRLHKTGLRGRKGNLAICVIILLFILAVINLIITLVIWAVIRIGPNGCDSMEFHESGLLRFKQVSDMGVIHPLYKSTVGGRRNENLVITGNNQPIVFQQGTTKLSVENNKTSITSDIGMQFFDPRTQNILFSTDYETHEFHLPSGVKSLNVQKASTERITSNATSDLNIKVDGRAIVRGNEGVFIMGKTIEFHMGGNMELKAENSIILNGSVMVSTTRLPSSSSGDQLGSGDWVRYKLCMCADGTLFKVQVTSQNMGCQISDNPCGNTH [Q12Y] | -0.05
17 | MAAAAAAAAEQWSSNGPVKKSMREKAVERRSVNKEHNSNFKAGYIPIDEDRLHKTGLRGRKGNLAICVIILLFILAVINLIITLVIWAVIRIGPNGCDSMEFHESGLLRFKQVSDMGVIHPLYKSTVGGRRNENLVITGNNQPIVFQQGTTKLSVENNKTSITSDIGMQFFDPRTQNILFSTDYETHEFHLPSGVKSLNVQKASTERITSNATSDLNIKVDGRAIVRGNEGVFIMGKTIEFHMGGNMELKAENSIILNGSVMVSTTRLPSSSSGDQLGSGDWVRYKLCMCADGTLFKVQVTSQNMGCQISDNPCGNTH [Q12W] | -0.29
18 | MAAAAAAAAEQTSSNGPVKKSMREKAVERRSVNKEHNSNFKAGYIPIDEDRLHKTGLRGRKGNLAICVIILLFILAVINLIITLVIWAVIRIGPNGCDSMEFHESGLLRFKQVSDMGVIHPLYKSTVGGRRNENLVITGNNQPIVFQQGTTKLSVENNKTSITSDIGMQFFDPRTQNILFSTDYETHEFHLPSGVKSLNVQKASTERITSNATSDLNIKVDGRAIVRGNEGVFIMGKTIEFHMGGNMELKAENSIILNGSVMVSTTRLPSSSSGDQLGSGDWVRYKLCMCADGTLFKVQVTSQNMGCQISDNPCGNTH [Q12T] | -0.35
19 | MAAAAAAAAEQVSSNGPVKKSMREKAVERRSVNKEHNSNFKAGYIPIDEDRLHKTGLRGRKGNLAICVIILLFILAVINLIITLVIWAVIRIGPNGCDSMEFHESGLLRFKQVSDMGVIHPLYKSTVGGRRNENLVITGNNQPIVFQQGTTKLSVENNKTSITSDIGMQFFDPRTQNILFSTDYETHEFHLPSGVKSLNVQKASTERITSNATSDLNIKVDGRAIVRGNEGVFIMGKTIEFHMGGNMELKAENSIILNGSVMVSTTRLPSSSSGDQLGSGDWVRYKLCMCADGTLFKVQVTSQNMGCQISDNPCGNTH [Q12V] | -0.06
